{"source": "paper PMC6182147", "key": {"[1]": {"target": "Clp-GST (L. enzymogenes Clp purified as GST-fusion) (Lysobacter enzymogenes) (UniProt Q7WZ07)", "experiment": "MST"}, "[2]": {"target": "Clp-GST (L. enzymogenes Clp purified as GST-fusion) (Lysobacter enzymogenes) (UniProt Q7WZ07)", "experiment": "MST", "remark": "listed apart in the source"}}, "note": "Read-outs that look alike come from different tables or passages of the source."}
{"substance": "LchP-PGE-MBP (cytoplasmic fragment of LchP, PAS+GGDEF+EAL domains, fused to maltose binding protein) (domain or fragment)", "values": [{"measurement": "Kd", "setting": "[1]", "result": 7.18, "unit": "nM"}, {"measurement": "Kd", "setting": "[2]", "result": 1.42, "unit": "nM"}]}
